# Experimental data as given in article PMC4365668, “The zinc finger proteins ZNF644 and WIZ regulate the G9a/GLP complex for gene repression”.
# T1: GST-WIZN200 (human, UniProt O95785 1-200)
# T1 sequence: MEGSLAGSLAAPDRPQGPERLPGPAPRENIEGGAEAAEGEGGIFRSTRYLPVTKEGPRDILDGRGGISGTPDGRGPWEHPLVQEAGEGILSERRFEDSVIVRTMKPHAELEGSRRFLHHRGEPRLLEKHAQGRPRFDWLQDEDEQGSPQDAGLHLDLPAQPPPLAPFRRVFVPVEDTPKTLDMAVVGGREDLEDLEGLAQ
# T2: GST-ZNF644 (human, UniProt Q9H582 1-1327)
# T2 sequence: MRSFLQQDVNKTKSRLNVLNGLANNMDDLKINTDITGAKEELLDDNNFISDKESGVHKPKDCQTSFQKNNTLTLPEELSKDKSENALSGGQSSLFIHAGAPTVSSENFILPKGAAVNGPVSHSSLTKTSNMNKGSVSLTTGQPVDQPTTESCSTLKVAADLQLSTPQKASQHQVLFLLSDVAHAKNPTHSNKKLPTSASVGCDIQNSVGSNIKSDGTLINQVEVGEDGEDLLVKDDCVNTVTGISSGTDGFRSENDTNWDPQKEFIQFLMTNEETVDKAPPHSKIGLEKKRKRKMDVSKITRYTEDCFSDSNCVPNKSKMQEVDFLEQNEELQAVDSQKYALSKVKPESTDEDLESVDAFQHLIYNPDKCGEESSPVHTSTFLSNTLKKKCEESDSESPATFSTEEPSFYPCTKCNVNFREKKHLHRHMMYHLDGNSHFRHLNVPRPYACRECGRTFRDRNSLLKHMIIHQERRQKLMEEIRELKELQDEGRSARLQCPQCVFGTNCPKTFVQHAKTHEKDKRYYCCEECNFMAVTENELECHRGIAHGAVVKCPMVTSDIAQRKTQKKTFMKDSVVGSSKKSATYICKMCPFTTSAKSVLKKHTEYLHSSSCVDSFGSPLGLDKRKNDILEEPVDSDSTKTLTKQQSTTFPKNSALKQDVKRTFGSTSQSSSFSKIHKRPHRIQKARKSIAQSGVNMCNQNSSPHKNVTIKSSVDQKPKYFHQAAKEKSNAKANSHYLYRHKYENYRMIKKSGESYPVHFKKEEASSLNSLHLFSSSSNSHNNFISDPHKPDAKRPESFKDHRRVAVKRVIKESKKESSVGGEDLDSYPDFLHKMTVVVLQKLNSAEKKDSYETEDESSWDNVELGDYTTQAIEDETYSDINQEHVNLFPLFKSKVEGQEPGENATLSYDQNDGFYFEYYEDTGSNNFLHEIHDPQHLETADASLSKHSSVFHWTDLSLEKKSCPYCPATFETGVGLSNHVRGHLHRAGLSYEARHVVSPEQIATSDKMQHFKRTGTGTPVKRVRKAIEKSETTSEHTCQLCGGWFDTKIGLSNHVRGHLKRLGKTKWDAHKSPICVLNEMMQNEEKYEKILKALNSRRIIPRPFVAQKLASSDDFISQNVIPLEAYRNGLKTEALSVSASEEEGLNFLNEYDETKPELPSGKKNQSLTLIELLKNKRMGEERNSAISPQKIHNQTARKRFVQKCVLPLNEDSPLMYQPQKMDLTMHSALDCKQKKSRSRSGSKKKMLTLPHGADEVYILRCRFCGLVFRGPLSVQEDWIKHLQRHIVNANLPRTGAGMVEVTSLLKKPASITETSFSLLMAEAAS
# T3: GST-ZNF644N300 (human, UniProt Q9H582 1-300)
# T3 sequence: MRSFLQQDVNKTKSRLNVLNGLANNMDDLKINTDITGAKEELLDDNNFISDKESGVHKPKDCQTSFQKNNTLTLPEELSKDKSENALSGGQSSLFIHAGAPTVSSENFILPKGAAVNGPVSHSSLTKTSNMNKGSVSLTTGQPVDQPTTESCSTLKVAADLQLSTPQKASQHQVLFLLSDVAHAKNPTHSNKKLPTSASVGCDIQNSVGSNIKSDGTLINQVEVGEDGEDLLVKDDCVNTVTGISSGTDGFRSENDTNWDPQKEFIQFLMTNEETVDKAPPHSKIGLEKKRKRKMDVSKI
# B1: WIZ WT DNA target (dsDNA)
# DNA 1: GAGTCTCACTCACGCGCCATTCCATTCCATTCAGATACTAGTACGGTCAG
# DNA 2: CTGACCGTACTAGTATCTGAATGGAATGGAATGGCGCGTGAGTGAGACTC
# B2: ZNF644 WT DNA target (dsDNA)
# DNA 1: GAGTAAGATCATGCCACTGGGAATCATCGAACACAGAGTGAGGCTGGG
# DNA 2: CCCAGCCTCACTCTGTGTTCGATGATTCCCAGTGGCATGATCTTACTC
# Tests used:
# Assay in all cases: EMSA; 20 mM HEPES-KOH pH 7.9, 20% glycerol, 0.2 mM EDTA, 0.1 M KCl, 0.5 mM PMSF, 1 mM DTT, 5 mM MgCl2, 1.25 ug/ul BSA, 0.2 nM DNA, 2 h at 4 C; 7.5% PAGE in TBE
# Details in all cases: protein: recombinant; tags: GST; label: 5'-32P; blunt
# [1] = target: T1, GST-WIZN200
# [2] = target: GST-WIZ (human, UniProt O95785 1-1651)
# [3] = target: T2, GST-ZNF644
# [4] = target: T3, GST-ZNF644N300
Binder,binding result [1],binding result [2],binding result [3],binding result [4]
B1,no binding,binds,–,–
B2,–,–,binds,no binding
